Among the data in PMC3492748 are decline of co-precipitation over 20 minutes after fertilisation values, retold here.

The target in experiment [1] is geminin (Xenopus laevis (endogenous in eggs and embryos)) (UniProt O93352). Kind of experiment: co-IP.
In experiment [2] the target is Cdt1 (Xenopus laevis (endogenous in eggs and embryos)) (UniProt Q9I9A7). Kind of experiment: co-IP.

Some results are limits rather than exact numbers.

As to “Cdt1 (from UniProt Q9I9A7 1-617) (natural protein)”, in experiment [1], the decline of co-precipitation over 20 minutes after fertilisation was > 50%. With “geminin (from UniProt O93352 1-219) (natural protein)”, the decline of co-precipitation over 20 minutes after fertilisation in experiment [2] is > 50%.
